Laboratory results: PMC3267858 (Nature, 2012)

B1: C-linker/CNBHD of zebrafish ELK channel (amino acids Q543-L750) (domain or fragment, Danio rerio (zebrafish), UniProt A8WHX9 543-750, looked up)
chain: QRMYSRRSLYHTRTKDLKDFIRVHRLPKALAQRMLECFQTTWSVNNGIDVSELLKDFPDELRADIAMHLNKELLQLPLFESASRGCLRSLSLIIKTSFCAPGEFLIRQGDALQAIYFVCSGSMEVLKDNTVLAILGKGDLIGSDSLTKEQVIKTNANVKALTYCDLQYISLKGLREVLRLYPEYAQKFVSEIQHDLTYNLREGSGADL
B2: GFP-tagged C-linker/CNBHD of zELK channels (amino acids Q543-L750) (domain or fragment, Danio rerio (zebrafish), UniProt A8WHX9 543-750, looked up)
chain: B1 chain

How the values were obtained:
crystal structure = biological target: the molecule itself; assay: crystal structure
SEC = biological target: the molecule itself; assay: SEC

Protein | stoichiometry N (crystal structure) | stoichiometry N (SEC)
B1 | 2 | 
B2 |  | 2
